Source: patent US11352401

B1: LTEAVLNRY (SEQ ID NO: 160) (peptide)
peptide: LTEAVLNRY
B2: DTDSQRLAY (SEQ ID NO: 402) (peptide)
peptide: DTDSQRLAY
B3: LVDDGTHGQY (SEQ ID NO: 161) (peptide)
peptide: LVDDGTHGQY
B4: VTDGINPLIDRY (SEQ ID NO: 190) (peptide)
peptide: VTDGINPLIDRY
B5: RTDSCSSAQAQY (SEQ ID NO: 172) (peptide)
peptide: RTDSCSSAQAQY
B6: NTQITDIGRY (SEQ ID NO: 166) (peptide)
peptide: NTQITDIGRY
B7: LLDSLREQY (SEQ ID NO: 156) (peptide)
peptide: LLDSLREQY
B8: VLDQGKITEY (SEQ ID NO: 445) (peptide)
peptide: VLDQGKITEY
B9: FIDYPKKEDY (SEQ ID NO: 143) (peptide)
peptide: FIDYPKKEDY
B10: NTDPTAPPY (SEQ ID NO: 165) (peptide)
peptide: NTDPTAPPY
B11: ESDVGVVVY (SEQ ID NO: 141) (peptide)
peptide: ESDVGVVVY
B12: TTDIIEKY (SEQ ID NO: 186) (peptide)
peptide: TTDIIEKY
B13: TDYHVRVY (SEQ ID NO: 182) (peptide)
peptide: TDYHVRVY
B14: ELDSKVEVLTY (SEQ ID NO: 403) (peptide)
peptide: ELDSKVEVLTY
B15: NSDSSLTLREFY (SEQ ID NO: 163) (peptide)
peptide: NSDSSLTLREFY
B16: QSDPGTSVLGY (SEQ ID NO: 167) (peptide)
peptide: QSDPGTSVLGY
B17: FLDSQNLSAY (SEQ ID NO: 144) (peptide)
peptide: FLDSQNLSAY
B18: ASEQQALHTVQY (SEQ ID NO: 398) (peptide)
peptide: ASEQQALHTVQY
B19: YLDIPNPRY (SEQ ID NO: 448) (peptide)
peptide: YLDIPNPRY
B20: ESDREELNY (SEQ ID NO: 140) (peptide)
peptide: ESDREELNY
B21: VSDAKLDKY (SEQ ID NO: 188) (peptide)
peptide: VSDAKLDKY
B22: HSDLKVGEY (SEQ ID NO: 151) (peptide)
peptide: HSDLKVGEY
B23: EVAEPSVLFDLY (SEQ ID NO: 142) (peptide)
peptide: EVAEPSVLFDLY
B24: KLDRSVFTAY (SEQ ID NO: 153) (peptide)
peptide: KLDRSVFTAY
B25: FVDKPVAY (SEQ ID NO: 145) (peptide)
peptide: FVDKPVAY
B26: TSAHPEDSSFY (SEQ ID NO: 184) (peptide)
peptide: TSAHPEDSSFY
B27: HTDSLHLLI (SEQ ID NO: 152) (peptide)
peptide: HTDSLHLLI
B28: VVDSVGGYLY (SEQ ID NO: 195) (peptide)
peptide: VVDSVGGYLY
B29: LLDISQKNLY (SEQ ID NO: 154) (peptide)
peptide: LLDISQKNLY
B30: VVDEDHELIY (SEQ ID NO: 447) (peptide)
peptide: VVDEDHELIY
B31: ECDMAFHIY (SEQ ID NO: 139) (peptide)
peptide: ECDMAFHIY
B32: TTDTVIRSY (SEQ ID NO: 444) (peptide)
peptide: TTDTVIRSY
B33: ATDISRQNEY (SEQ ID NO: 400) (peptide)
peptide: ATDISRQNEY
B34: LVDNSIRELQY (SEQ ID NO: 162) (peptide)
peptide: LVDNSIRELQY
B35: VTDGSLYEGVAY (SEQ ID NO: 191) (peptide)
peptide: VTDGSLYEGVAY
B36: TADGKTYYY (SEQ ID NO: 181) (peptide)
peptide: TADGKTYYY
B37: VADLHLYLY (SEQ ID NO: 187) (peptide)
peptide: VADLHLYLY
B38: SRTINVSNLY (SEQ ID NO: 176) (peptide)
peptide: SRTINVSNLY
B39: YADTVRPEFY (SEQ ID NO: 197) (peptide)
peptide: YADTVRPEFY
B40: YVDINTFRL (SEQ ID NO: 84) (peptide)
peptide: YVDINTFRL
B41: TLYPYQISQL (SEQ ID NO: 87) (peptide)
peptide: TLYPYQISQL
B42: FVIDGFDEL (SEQ ID NO: 86) (peptide)
peptide: FVIDGFDEL
B43: ILSTTMVTV (SEQ ID NO: 89) (peptide)
peptide: ILSTTMVTV
B44: LQSSGLTLLL (SEQ ID NO: 98) (peptide)
peptide: LQSSGLTLLL
B45: ITIGVLARV (SEQ ID NO: 95) (peptide)
peptide: ITIGVLARV
B46: HLVGGLHTV (SEQ ID NO: 96) (peptide)
peptide: HLVGGLHTV
B47: RQYPTPFQL (SEQ ID NO: 100) (peptide)
peptide: RQYPTPFQL
B48: SLLEQAIAL (SEQ ID NO: 102) (peptide)
peptide: SLLEQAIAL
B49: FLKEKVPGI (SEQ ID NO: 99) (peptide)
peptide: FLKEKVPGI
B50: VLALVNSTV (SEQ ID NO: 97) (peptide)
peptide: VLALVNSTV
B51: TLQEKILQV (SEQ ID NO: 93) (peptide)
peptide: TLQEKILQV
B52: VLPDIETLIGV (SEQ ID NO: 94) (peptide)
peptide: VLPDIETLIGV
B53: VQMVITEAQKV (SEQ ID NO: 88) (peptide)
peptide: VQMVITEAQKV
B54: YIDEFQSLV (SEQ ID NO: 85) (peptide)
peptide: YIDEFQSLV

Biological target: T1, HLA-A*01 (human)
T1 construct: MHC monomer made peptide-receptive by UV cleavage of a UV-sensitive ligand; also called peptide-receptive MHC class I monomer
Test: UV peptide-exchange ELISA; +++ = yield >50%
Description: Candidate peptides for T cell based therapies according to the present invention were further tested for their MHC binding capacity (affinity). The individual peptide-MHC complexes were produced by UV-ligand exchange, where a UV-sensitive peptide is cleaved upon UV-irradiation, and exchanged with the peptide of interest as analyzed. Only peptide candidates that can effectively bind and stabilize the peptide-receptive MHC molecules prevent dissociation of the MHC complexes. To determine the yield of the exchange reaction, an ELISA was performed based on the detection of the light chain (β2m) of stabilized MHC complexes. The assay was performed as generally described in Rodenko et al. (Rodenko et al., 2006).
96 well MAXISorp plates (NUNC) were coated over night with 2 ug/ml streptavidin in PBS at room temperature, washed 4× and blocked for 1 h at 37° C. in 2% BSA containing blocking buffer. […] Peptide-MHC monomers of the UV-exchange reaction were diluted 100-fold in blocking buffer. Samples were incubated for 1 h at 37° C., washed four times, incubated with 2 ug/ml HRP conjugated anti-β2m for 1h at 37° C., washed again and detected with TMB solution that is stopped with […]. Absorption was measured at 450 nm.

peptide exchange yield [%]	Binder
50 to 75	B1
50 to 75	B2
50 to 75	B3
50 to 75	B4
50 to 75	B5
50 to 75	B6
50 to 75	B7
50 to 75	B8
50 to 75	B9
50 to 75	B10
50 to 75	B11
50 to 75	B12
50 to 75	B13
50 to 75	B14
50 to 75	B15
50 to 75	B16
50 to 75	B17
50 to 75	B18
50 to 75	B19
50 to 75	B20

peptide exchange yield [%]	Binder
50 to 75	B21
50 to 75	B22
50 to 75	B23
50 to 75	B24
50 to 75	B25
50 to 75	B26
50 to 75	B27
50 to 75	B28
50 to 75	B29
50 to 75	B30
50 to 75	B31
50 to 75	B32
50 to 75	B33
50 to 75	B34
50 to 75	B35
50 to 75	B36
50 to 75	B37
50 to 75	B38
50 to 75	B39

Biological target: T2, HLA-A*02 (human)
T2 construct: MHC monomer made peptide-receptive by UV cleavage of a UV-sensitive ligand; also called peptide-receptive MHC class I monomer
Test: UV peptide-exchange ELISA; ++++ = yield >75%

peptide exchange yield [%]	Binder
> 75	B40
> 75	B41
> 75	B42
> 75	B43
> 75	B44
> 75	B45
> 75	B46
> 75	B47
> 75	B48
> 75	B49
> 75	B50
> 75	B51
> 75	B52
> 75	B53
> 75	B54
